Measurements reported in publication PMC9034974, “Physicochemical characterization of the recombinant lectin scytovirin and microbicidal activity of the SD1 domain produced in rice against HIV-1” (Plant Cell Reports, 2022).
pKd: −log10 of the molar value. Read-outs that look alike come from different tables or passages of the source.

Key:
[1] = target: recombinant gp120 used for isothermal titration calorimetry (strain not stated) (HIV-1 (strain not stated)) (UniProt P04578); assay: ITC; 102 µM SVN titrated into the cell with 1.6 µM gp120; 30 °C; 10 mM sodium phosphate pH 7.4, 3 mM sodium azide; fitted to one set of identical sites
[2] = target: recombinant gp120 used for isothermal titration calorimetry (strain not stated) (HIV-1 (strain not stated)) (UniProt P04578); assay: as above; remark: listed apart in the source

scytovirin (SVN), full-size, E. coli-produced, sequence (P86041 whole entry): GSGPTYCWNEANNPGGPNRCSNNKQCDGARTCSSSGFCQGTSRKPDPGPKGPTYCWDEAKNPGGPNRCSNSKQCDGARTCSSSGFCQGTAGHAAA

scytovirin (SVN), full-size, E. coli-produced (from UniProt P86041 1-95) (natural protein)
pKd [1]: 5.79
dH [1]: -6.45 kcal/mol
stoichiometry N (SVN per gp120) [1]: 5
pKd [2]: 5.82
